In patent US11358986B2, “IL-2RBETA binding compounds” (MEDIKINE, INC., priority 2018, dated 2022):
Ends that are not written are not given here.

Columns and labels:
[1] = target: T1, extracellular domain (ECD) of IL-2Rβ (Homo sapiens, UniProt P14784); assay: Competitive binding of synthetic test peptides against phage clones on immobilized IL-2Rβ ECD; conditions: for Competition with phage clone peptide SEQ ID NO: 58: phage clone of IL-2β family 1; for Competition with phage clone peptide SEQ ID NO: 170: phage clone of IL-2β family 2A; for Competition with phage clone peptide SEQ ID NO: 83: phage clone of IL-2β family 2B; for Competition with phage clone peptide SEQ ID NO: 1034 or 1084: phage clone of IL-2β family 2C; for Competition with phage clone peptide SEQ ID NO: 1044: phage clone of IL-2β family 4
T1 construct: Fc; purchased ACRObiosystems, Inc. ILB-H5253
T1 sequence (P14784 27-239): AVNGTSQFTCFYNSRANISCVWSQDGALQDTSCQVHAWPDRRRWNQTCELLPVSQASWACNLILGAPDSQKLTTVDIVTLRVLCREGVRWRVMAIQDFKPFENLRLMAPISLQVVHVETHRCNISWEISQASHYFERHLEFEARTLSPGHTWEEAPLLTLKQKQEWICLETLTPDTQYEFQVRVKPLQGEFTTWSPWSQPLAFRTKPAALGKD
Experimental: (§1) Competitive binding assays were performed to characterize the IL-2R binding sites for certain IL-2Rβ and to IL-2Rγc ligands.
Representative phage clones displaying peptides from IL-2Rβ ligand families were bound to the extracellular domain (ECD) of IL-2Rβ immobilized in microtiter wells. Phage binding was conducted in the presence and absence of synthetic test peptides to determine if phage peptides and test peptides competed for binding to the same sites on IL-2Rβ. Synthetic test peptides were selected to represent peptides from IL-2Rβ ligand families, as well positive and negative control peptides.
(§2) Phage binding to the immobilized IL-2Rβ ECD was detected by staining with antibody against phage coat proteins (anti-phage Ab), staining with labeled secondary antibody against the anti-phage Ab, and scored by reading OD in the microtiter plate optical reader.
(§3) The ELISA signal for each phage binding in the presence and absence of the test peptides was compared to determine which synthetic peptides competed with which phage peptides for binding to the IL-2Rβ subunit.

IL-2Rγc subunit = target: T2, IL-2Rγc subunit (Homo sapiens, UniProt P31785); assay: Competitive binding of synthetic test peptides against phage clones on IL-2Rγc; conditions: for Competition with phage clone peptide SEQ ID NO: 198: phage clone of IL-2Rγc family 1A; for Competition with phage clone peptide SEQ ID NO: 224: phage clone of IL-2Rγc family 1B; for Competition with phage clone peptide SEQ ID NO: 236: phage clone of IL-2Rγc family 2; for Competition with phage clone peptide SEQ ID NO: 248 or 1051: phage clone of IL-2Rγc family 3; for Competition with phage clone peptide SEQ ID NO: 266: phage clone of IL-2Rγc family 4; for Competition with phage clone peptide SEQ ID NO: 948: phage clone of IL-2Rγc family 5
T2 construct: Fc; purchased ACRObiosystems, Inc. ILG-H5256
T2 sequence (P31785 23-254): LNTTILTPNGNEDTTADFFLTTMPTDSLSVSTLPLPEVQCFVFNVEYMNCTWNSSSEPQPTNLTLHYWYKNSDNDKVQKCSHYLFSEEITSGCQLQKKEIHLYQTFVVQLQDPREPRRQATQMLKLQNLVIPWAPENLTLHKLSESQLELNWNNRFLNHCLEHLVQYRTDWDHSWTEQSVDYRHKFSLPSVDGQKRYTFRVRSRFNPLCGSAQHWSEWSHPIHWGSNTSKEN
Experimental: as §1, §2, §3
A similar study was performed to evaluate the binding of IL-2Rγc ligands.

NK-92 cells = assay: STAT5 phosphorylation in NK-92 cells; type: cell-based, human; conditions: Western Blot, 0.1, 1 and 10 μM, 30 min
Experimental: NK-92 cells were seeded in a 24-well plate at 4×10^5 cells, in 1 mL starvation medium (SM), and incubated overnight at 37° C., 5% CO2. The starvation medium contained RPMI 1640+20% FBS+2 mM L-glutamine+1 mM NaPyr+10 mM HEPES+0.1 mM BME (no rhIL-2 supplement).
Treatment mixtures were of 1 pg/mL Anti-hIL-2 neutralizing antibody (0.2 mg/mL stock) or goat IgG control (1 mg/mL stock) were prepared.
The treatment mixtures and the antibody mix were added to the cells for 30 min at 37° C., 5% CO2. Each sample was then transferred to a 1.5 mL microfuge tube and spun down at 1,500 RPM for 5 minutes. The cells were washed in 1 mL PBS and centrifuged again.
A phosphatase and protease inhibitor cocktail (Thermo #78442) were added to mPER buffer at a 1:100 dilution. After the cells were pelleted, 50 μL of mPER buffer was added to each sample and pipetted repeatedly to homogenize.
The lysates were centrifuged at 14,000 RPM for 5 min at RT. The supernatants were transferred to clean tubes and stored frozen at −80° C.
The treatment reagents included Anti-STAT5 Antibody (rabbit), Cell Signaling No. 94205S; Anti-pSTAT5 Antibody (rabbit), Cell Signaling No. 4322S; and Goat anti-rabbit IgG-HRP, Jackson Immunoresearch No. 111-035-144.

With 224 (DCSMWEGVELCW) [Peptide 224] the “Competition with phage clone peptide SEQ ID NO: 58” value [1] was “−”, the “Competition with phage clone peptide SEQ ID NO: 170” value [1] was “−” and the “Competition with phage clone peptide SEQ ID NO: 83” value [1] was “−”. The “Competition with phage clone peptide SEQ ID NO: 1034 or 1084” value [1] was “−”, the “Competition with phage clone peptide SEQ ID NO: 1044” value [1] was “−” and the “Competition with phage clone peptide SEQ ID NO: 198” value (IL-2Rγc subunit) was “+ (Peptide competes with phage binding.)”. The “Competition with phage clone peptide SEQ ID NO: 224” value (IL-2Rγc subunit) was “+ (Peptide competes with phage binding.)”, the “Competition with phage clone peptide SEQ ID NO: 236” value (IL-2Rγc subunit) was “+ (Peptide competes with phage binding.)” and the “Competition with phage clone peptide SEQ ID NO: 248 or 1051” value (IL-2Rγc subunit) was “+ (Peptide competes with phage binding.)”. For the same substance, the “Competition with phage clone peptide SEQ ID NO: 266” value (IL-2Rγc subunit) was “+ (Peptide competes with phage binding.)” and the “Competition with phage clone peptide SEQ ID NO: 948” value (IL-2Rγc subunit) was “−”.

948 (SLLKCYNASTCASVF) [Peptide 948] was tested, and the “Competition with phage clone peptide SEQ ID NO: 198” value (IL-2Rγc subunit) was “−^2”, the “Competition with phage clone peptide SEQ ID NO: 224” value (IL-2Rγc subunit) was “−” and the “Competition with phage clone peptide SEQ ID NO: 236” value (IL-2Rγc subunit) was “−”. For the same substance, the “Competition with phage clone peptide SEQ ID NO: 248 or 1051” value (IL-2Rγc subunit) was “−”, the “Competition with phage clone peptide SEQ ID NO: 266” value (IL-2Rγc subunit) was “−” and the “Competition with phage clone peptide SEQ ID NO: 948” value (IL-2Rγc subunit) was “+ (Peptide competes with phage binding.)”.

236 (MCWLEWGEWVGSCL) [Peptide 236] was tested, and the “Competition with phage clone peptide SEQ ID NO: 198” value (IL-2Rγc subunit) was “+ (Peptide competes with phage binding.)”, the “Competition with phage clone peptide SEQ ID NO: 224” value (IL-2Rγc subunit) was “+ (Peptide competes with phage binding.)” and the “Competition with phage clone peptide SEQ ID NO: 236” value (IL-2Rγc subunit) was “+ (Peptide competes with phage binding.)”. The “Competition with phage clone peptide SEQ ID NO: 248 or 1051” value (IL-2Rγc subunit) was “+ (Peptide competes with phage binding.)”, the “Competition with phage clone peptide SEQ ID NO: 266” value (IL-2Rγc subunit) was “+ (Peptide competes with phage binding.)” and the “Competition with phage clone peptide SEQ ID NO: 948” value (IL-2Rγc subunit) was “−”.

1041 (WESWNVGDLVNLVNW) [compound 1041] was tested, and the “competition for binding to the binding site of the IL-2Rβ subunit with the group of IL-2Rβ ligands” value (shortened to “competition for binding … of IL-2Rβ ligands”) [1] was “does not compete”.

In the case of 58 (YDCRIAQVGELCDL) [Peptide 58], the “Competition with phage clone peptide SEQ ID NO: 58” value [1] was “+^1 (Peptide competes with phage binding.)”, the “Competition with phage clone peptide SEQ ID NO: 170” value [1] was “+ (Peptide competes with phage binding.)” and the “Competition with phage clone peptide SEQ ID NO: 83” value [1] was “+ (Peptide competes with phage binding.)”. The “Competition with phage clone peptide SEQ ID NO: 1034 or 1084” value [1] was “+ (Peptide competes with phage binding.)”, the “Competition with phage clone peptide SEQ ID NO: 1044” value [1] was “−” and the “Competition with phage clone peptide SEQ ID NO: 198” value (IL-2Rγc subunit) was “−”. For the same substance, the “Competition with phage clone peptide SEQ ID NO: 224” value (IL-2Rγc subunit) was “−”, the “Competition with phage clone peptide SEQ ID NO: 236” value (IL-2Rγc subunit) was “−” and the “Competition with phage clone peptide SEQ ID NO: 248 or 1051” value (IL-2Rγc subunit) was “−”. The “Competition with phage clone peptide SEQ ID NO: 266” value (IL-2Rγc subunit) was “−” and the “Competition with phage clone peptide SEQ ID NO: 948” value (IL-2Rγc subunit) was “−”.

With “SEQ ID NO: 248 or 1051: IL-2Rγc family 3 test peptide, SEQ ID NO: 248 or its modified form SEQ ID NO: 1051 (DLSDLSTFWLSQ; not fully specified)” the “Competition with phage clone peptide SEQ ID NO: 198” value (IL-2Rγc subunit) was “+ (Peptide competes with phage binding.)”, the “Competition with phage clone peptide SEQ ID NO: 224” value (IL-2Rγc subunit) was “+ (Peptide competes with phage binding.)” and the “Competition with phage clone peptide SEQ ID NO: 236” value (IL-2Rγc subunit) was “+ (Peptide competes with phage binding.)”. For the same substance, the “Competition with phage clone peptide SEQ ID NO: 248 or 1051” value (IL-2Rγc subunit) was “+ (Peptide competes with phage binding.)”, the “Competition with phage clone peptide SEQ ID NO: 266” value (IL-2Rγc subunit) was “+ (Peptide competes with phage binding.)” and the “Competition with phage clone peptide SEQ ID NO: 948” value (IL-2Rγc subunit) was “−”.

For 948 (SLLKCYNASTCASVF) [compound 948], the “competition for binding to the binding site of the IL-2Rγc subunit with the group of IL-2Rγc ligands” value (IL-2Rγc subunit) was “does not compete”.

In the case of 58 (YDCRIAQVGELCDL) [compound 58], the “competition for binding to the binding site of the IL-2Rγc subunit with the group of IL-2Rγc ligands” value (IL-2Rγc subunit) was “does not compete”.

For 1044 (RSCYYKRPRLWCSE) [Peptide 1044], the “Competition with phage clone peptide SEQ ID NO: 58” value [1] was “−^2”, the “Competition with phage clone peptide SEQ ID NO: 170” value [1] was “−” and the “Competition with phage clone peptide SEQ ID NO: 83” value [1] was “−”. For the same substance, the “Competition with phage clone peptide SEQ ID NO: 1034 or 1084” value [1] was “−” and the “Competition with phage clone peptide SEQ ID NO: 1044” value [1] was “+ (Peptide competes with phage binding.)”.

“Compound B: heterodimer of SEQ. ID. NO: 58 and SEQ ID. NO. 237 (chain 1 YDCRIAQVGELCDL; chain 2 LCFSEFLGEWVDCN; cysteine pairing not given here; also: heterodimer)” was tested, and the “STAT5 phosphorylation (pSTAT5)” value (NK-92 cells) was “induced”.

For “Compound A: heterodimer of SEQ. ID. NO: 58 and SEQ ID. NO. 224 (chain 1 YDCRIAQVGELCDL; chain 2 DCSMWEGVELCW; cysteine pairing not given here; also: heterodimer)”, the “STAT5 phosphorylation (pSTAT5)” value (NK-92 cells) was “induced”.

1044 (RSCYYKRPRLWCSE) [compound 1044] was tested, and the “competition for binding … of IL-2Rβ ligands” value [1] was “does not compete”.

1042 (CYEVGDYCQSPL) [Peptide 1042] was tested, and the “Competition with phage clone peptide SEQ ID NO: 58” value [1] was “+ (Peptide competes with phage binding.)”, the “Competition with phage clone peptide SEQ ID NO: 170” value [1] was “+ (Peptide competes with phage binding.)” and the “Competition with phage clone peptide SEQ ID NO: 83” value [1] was “+ (Peptide competes with phage binding.)”. For the same substance, the “Competition with phage clone peptide SEQ ID NO: 1034 or 1084” value [1] was “+ (Peptide competes with phage binding.)” and the “Competition with phage clone peptide SEQ ID NO: 1044” value [1] was “−”.

202 (RTCTEWENVVLCWV) [Peptide 202] was tested, and the “Competition with phage clone peptide SEQ ID NO: 198” value (IL-2Rγc subunit) was “+^1 (Peptide competes with phage binding.)”, the “Competition with phage clone peptide SEQ ID NO: 224” value (IL-2Rγc subunit) was “+ (Peptide competes with phage binding.)” and the “Competition with phage clone peptide SEQ ID NO: 236” value (IL-2Rγc subunit) was “+ (Peptide competes with phage binding.)”. For the same substance, the “Competition with phage clone peptide SEQ ID NO: 248 or 1051” value (IL-2Rγc subunit) was “+ (Peptide competes with phage binding.)”, the “Competition with phage clone peptide SEQ ID NO: 266” value (IL-2Rγc subunit) was “+ (Peptide competes with phage binding.)” and the “Competition with phage clone peptide SEQ ID NO: 948” value (IL-2Rγc subunit) was “−”.

With 169 (NMCLVGDYWPSCQI) [Peptide 169] the “Competition with phage clone peptide SEQ ID NO: 58” value [1] was “+ (Peptide competes with phage binding.)”, the “Competition with phage clone peptide SEQ ID NO: 170” value [1] was “+ (Peptide competes with phage binding.)” and the “Competition with phage clone peptide SEQ ID NO: 83” value [1] was “+ (Peptide competes with phage binding.)”. For the same substance, the “Competition with phage clone peptide SEQ ID NO: 1034 or 1084” value [1] was “+ (Peptide competes with phage binding.)” and the “Competition with phage clone peptide SEQ ID NO: 1044” value [1] was “−”.

With 224 (DCSMWEGVELCW) [compound 224] the “competition for binding … of IL-2Rβ ligands” value [1] was “does not compete”.
